Results as given in publication PMC2965066 (Science (New York, N.Y.), 2010).

What was measured:
[1] = target: T1, YU2 gp120 (HIV-1 (strain YU2), UniProt P35961); assay: SPR
[2] = target: T1, YU2 gp120; assay: ELISA

B1: VRC03 (antibody, V domains shown)
VH: QVQLVQSGAVIKTPGSSVKISCRASGYNFRDYSIHWVRLIPDKGFEWIGWIKPLWGAVSYARQLQGRVSMTRQLSQDPDDPDWGVAYMEFSGLTPADTAEYFCVRRGSCDYCGDFPWQYWGQGTVVVVSS
VL: EIVLTQSPGILSLSPGETATLFCKASQGGNAMTWYQKRRGQVPRLLIYDTSRRASGVPDRFVGSGSGTDFFLTINKLDREDFAVYYCQQFEFFGLGSELEVH
- Kd [1]: 73.1 nM
- binding result [2]: binds
